Assay results from US20180355034A1 (published 2018).

Legend:
[1] = biological target: Recombinant human FcRn (FcRn alpha and beta2-microglobulin) (human, UniProt P55899 24-290; P61769 21-119); assay: SPR; produced in HEK
[2] = biological target: Recombinant human CD16aV (V polymorphism at position 158 of CD16) (human, UniProt P08637 17-208); assay: SPR; produced in HEK
Chain of Recombinant human CD16aV (V polymorphism at position 158 of CD16) (P08637 17-208 F176V): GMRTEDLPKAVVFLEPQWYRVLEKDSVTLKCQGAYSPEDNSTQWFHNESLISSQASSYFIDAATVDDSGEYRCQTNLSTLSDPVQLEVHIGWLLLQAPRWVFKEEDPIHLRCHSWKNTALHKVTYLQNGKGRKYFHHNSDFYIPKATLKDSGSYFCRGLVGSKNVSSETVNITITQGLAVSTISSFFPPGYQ

| Kd [1] [nM] | Kd [2] [nM] | Binder |
| --- | --- | --- |
| 11.7 | 228 | A3A-184A (K334N/P352S/A378V/V397M) Fc fragment (other) DKTHTCPPCPAPELLGGPSVFLFPPKPKDTLMISRTPEVTCVVVDVSHEDPEVKFNWYVDGVEVHNAKTKPREEQYNSTYRVVSVLTVLHQDWLNGKEYKCKVSNKALPAPIENTISKAKGQPREPQVYTLSPSRDELTKNQVSLTCLVKGFYPSDIVVEWESNGQPENNYKTTPPMLDSDGSFFLYSKLTVDKSRWQQGNVFSCSVMHEALHNHYTQKSLSLSPGK |
| 27.3 | 308 | T5A-74M (Y296W/N315D/A330V/N361D/A378V/N434Y) Fc fragment (other) DKTHTCPPCPAPELLGGPSVFLFPPKPKDTLMISRTPEVTCVVVDVSHEDPEVKFNWYVDGVEVHNAKTKPREEQWNSTYRVVSVLTVLHQDWLDGKEYKCKVSNKALPVPIEKTISKAKGQPREPQVYTLPPSRDELTKDQVSLTCLVKGFYPSDIVVEWESNGQPENNYKTTPPVLDSDGSFFLYSKLTVDKSRWQQGNVFSCSVMHEALHYHYTQKSLSLSPGK |
| 30.2 | 2820 | T5A-74J (E258I/N315D/A330V/N361D/A378V/N434Y) Fc fragment (other) DKTHTCPPCPAPELLGGPSVFLFPPKPKDTLMISRTPIVTCVVVDVSHEDPEVKFNWYVDGVEVHNAKTKPREEQYNSTYRVVSVLTVLHQDWLDGKEYKCKVSNKALPVPIEKTISKAKGQPREPQVYTLPPSRDELTKDQVSLTCLVKGFYPSDIVVEWESNGQPENNYKTTPPVLDSDGSFFLYSKLTVDKSRWQQGNVFSCSVMHEALHYHYTQKSLSLSPGK |
| – | 1840 | J3B-118A (A378V/P396L/N421T) Fc fragment (other) DKTHTCPPCPAPELLGGPSVFLFPPKPKDTLMISRTPEVTCVVVDVSHEDPEVKFNWYVDGVEVHNAKTKPREEQYNSTYRVVSVLTVLHQDWLNGKEYKCKVSNKALPAPIEKTISKAKGQPREPQVYTLPPSRDELTKNQVSLTCLVKGFYPSDIVVEWESNGQPENNYKTTPLVLDSDGSFFLYSKLTVDKSRWQQGTVFSCSVMHEALHNHYTQKSLSLSPGK |
| 37.9 | 4400 | T5A-74L (E294A/N315D/A330V/N361D/A378V/N434Y) Fc fragment (other) DKTHTCPPCPAPELLGGPSVFLFPPKPKDTLMISRTPEVTCVVVDVSHEDPEVKFNWYVDGVEVHNAKTKPREAQYNSTYRVVSVLTVLHQDWLDGKEYKCKVSNKALPVPIEKTISKAKGQPREPQVYTLPPSRDELTKDQVSLTCLVKGFYPSDIVVEWESNGQPENNYKTTPPVLDSDGSFFLYSKLTVDKSRWQQGNVFSCSVMHEALHYHYTQKSLSLSPGK |

The next lines start with the binder.

| Binder | Kd [1] [nM] | Kd [2] [nM] |
| --- | --- | --- |
| A3A-105D (G316D/K326E/A378V) Fc fragment (other) DKTHTCPPCPAPELLGGPSVFLFPPKPKDTLMISRTPEVTCVVVDVSHEDPEVKFNWYVDGVEVHNAKTKPREEQYNSTYRVVSVLTVLHQDWLNDKEYKCKVSNEALPAPIEKTISKAKGQPREPQVYTLPPSRDELTKNQVSLTCLVKGFYPSDIVVEWESNGQPENNYKTTPPVLDSDGSFFLYSKLTVDKSRWQQGNVFSCSVMHEALHNHYTQKSLSLSPGK | 231 | 1210 |
| T5A-74K (K290Y/N315D/A330V/N361D/A378V/N434Y) Fc fragment (other) DKTHTCPPCPAPELLGGPSVFLFPPKPKDTLMISRTPEVTCVVVDVSHEDPEVKFNWYVDGVEVHNAKTYPREEQYNSTYRVVSVLTVLHQDWLDGKEYKCKVSNKALPVPIEKTISKAKGQPREPQVYTLPPSRDELTKDQVSLTCLVKGFYPSDIVVEWESNGQPENNYKTTPPVLDSDGSFFLYSKLTVDKSRWQQGNVFSCSVMHEALHYHYTQKSLSLSPGK | 16.6 | 3180 |
| T5A-74I (T260A/N315D/A330V/N361D/A378V/N434Y) Fc fragment (other) DKTHTCPPCPAPELLGGPSVFLFPPKPKDTLMISRTPEVACVVVDVSHEDPEVKFNWYVDGVEVHNAKTKPREEQYNSTYRVVSVLTVLHQDWLDGKEYKCKVSNKALPVPIEKTISKAKGQPREPQVYTLPPSRDELTKDQVSLTCLVKGFYPSDIVVEWESNGQPENNYKTTPPVLDSDGSFFLYSKLTVDKSRWQQGNVFSCSVMHEALHYHYTQKSLSLSPGK | 32.5 | 3510 |
